Reference: patent US10281476B2, “Methods to identify modulators of RyR calcium channels” (REGENTS OF THE UNIVERSITY OF MINNESOTA, priority 2013, dated 2019)

Assays:
[1] = target: T1, RyR2 (Rattus norvegicus, UniProt B0LPN4); set-up: These fluorescent proteins were added to saponin-permeabilized myocytes with or without pre-equilibration with saturating DPc10 concentration; endogenous in cells; host or cells: saponin-permeabilized rat ventricular myocytes; conditions: cited from earlier work
Target sequence in this assay (B0LPN4 whole entry): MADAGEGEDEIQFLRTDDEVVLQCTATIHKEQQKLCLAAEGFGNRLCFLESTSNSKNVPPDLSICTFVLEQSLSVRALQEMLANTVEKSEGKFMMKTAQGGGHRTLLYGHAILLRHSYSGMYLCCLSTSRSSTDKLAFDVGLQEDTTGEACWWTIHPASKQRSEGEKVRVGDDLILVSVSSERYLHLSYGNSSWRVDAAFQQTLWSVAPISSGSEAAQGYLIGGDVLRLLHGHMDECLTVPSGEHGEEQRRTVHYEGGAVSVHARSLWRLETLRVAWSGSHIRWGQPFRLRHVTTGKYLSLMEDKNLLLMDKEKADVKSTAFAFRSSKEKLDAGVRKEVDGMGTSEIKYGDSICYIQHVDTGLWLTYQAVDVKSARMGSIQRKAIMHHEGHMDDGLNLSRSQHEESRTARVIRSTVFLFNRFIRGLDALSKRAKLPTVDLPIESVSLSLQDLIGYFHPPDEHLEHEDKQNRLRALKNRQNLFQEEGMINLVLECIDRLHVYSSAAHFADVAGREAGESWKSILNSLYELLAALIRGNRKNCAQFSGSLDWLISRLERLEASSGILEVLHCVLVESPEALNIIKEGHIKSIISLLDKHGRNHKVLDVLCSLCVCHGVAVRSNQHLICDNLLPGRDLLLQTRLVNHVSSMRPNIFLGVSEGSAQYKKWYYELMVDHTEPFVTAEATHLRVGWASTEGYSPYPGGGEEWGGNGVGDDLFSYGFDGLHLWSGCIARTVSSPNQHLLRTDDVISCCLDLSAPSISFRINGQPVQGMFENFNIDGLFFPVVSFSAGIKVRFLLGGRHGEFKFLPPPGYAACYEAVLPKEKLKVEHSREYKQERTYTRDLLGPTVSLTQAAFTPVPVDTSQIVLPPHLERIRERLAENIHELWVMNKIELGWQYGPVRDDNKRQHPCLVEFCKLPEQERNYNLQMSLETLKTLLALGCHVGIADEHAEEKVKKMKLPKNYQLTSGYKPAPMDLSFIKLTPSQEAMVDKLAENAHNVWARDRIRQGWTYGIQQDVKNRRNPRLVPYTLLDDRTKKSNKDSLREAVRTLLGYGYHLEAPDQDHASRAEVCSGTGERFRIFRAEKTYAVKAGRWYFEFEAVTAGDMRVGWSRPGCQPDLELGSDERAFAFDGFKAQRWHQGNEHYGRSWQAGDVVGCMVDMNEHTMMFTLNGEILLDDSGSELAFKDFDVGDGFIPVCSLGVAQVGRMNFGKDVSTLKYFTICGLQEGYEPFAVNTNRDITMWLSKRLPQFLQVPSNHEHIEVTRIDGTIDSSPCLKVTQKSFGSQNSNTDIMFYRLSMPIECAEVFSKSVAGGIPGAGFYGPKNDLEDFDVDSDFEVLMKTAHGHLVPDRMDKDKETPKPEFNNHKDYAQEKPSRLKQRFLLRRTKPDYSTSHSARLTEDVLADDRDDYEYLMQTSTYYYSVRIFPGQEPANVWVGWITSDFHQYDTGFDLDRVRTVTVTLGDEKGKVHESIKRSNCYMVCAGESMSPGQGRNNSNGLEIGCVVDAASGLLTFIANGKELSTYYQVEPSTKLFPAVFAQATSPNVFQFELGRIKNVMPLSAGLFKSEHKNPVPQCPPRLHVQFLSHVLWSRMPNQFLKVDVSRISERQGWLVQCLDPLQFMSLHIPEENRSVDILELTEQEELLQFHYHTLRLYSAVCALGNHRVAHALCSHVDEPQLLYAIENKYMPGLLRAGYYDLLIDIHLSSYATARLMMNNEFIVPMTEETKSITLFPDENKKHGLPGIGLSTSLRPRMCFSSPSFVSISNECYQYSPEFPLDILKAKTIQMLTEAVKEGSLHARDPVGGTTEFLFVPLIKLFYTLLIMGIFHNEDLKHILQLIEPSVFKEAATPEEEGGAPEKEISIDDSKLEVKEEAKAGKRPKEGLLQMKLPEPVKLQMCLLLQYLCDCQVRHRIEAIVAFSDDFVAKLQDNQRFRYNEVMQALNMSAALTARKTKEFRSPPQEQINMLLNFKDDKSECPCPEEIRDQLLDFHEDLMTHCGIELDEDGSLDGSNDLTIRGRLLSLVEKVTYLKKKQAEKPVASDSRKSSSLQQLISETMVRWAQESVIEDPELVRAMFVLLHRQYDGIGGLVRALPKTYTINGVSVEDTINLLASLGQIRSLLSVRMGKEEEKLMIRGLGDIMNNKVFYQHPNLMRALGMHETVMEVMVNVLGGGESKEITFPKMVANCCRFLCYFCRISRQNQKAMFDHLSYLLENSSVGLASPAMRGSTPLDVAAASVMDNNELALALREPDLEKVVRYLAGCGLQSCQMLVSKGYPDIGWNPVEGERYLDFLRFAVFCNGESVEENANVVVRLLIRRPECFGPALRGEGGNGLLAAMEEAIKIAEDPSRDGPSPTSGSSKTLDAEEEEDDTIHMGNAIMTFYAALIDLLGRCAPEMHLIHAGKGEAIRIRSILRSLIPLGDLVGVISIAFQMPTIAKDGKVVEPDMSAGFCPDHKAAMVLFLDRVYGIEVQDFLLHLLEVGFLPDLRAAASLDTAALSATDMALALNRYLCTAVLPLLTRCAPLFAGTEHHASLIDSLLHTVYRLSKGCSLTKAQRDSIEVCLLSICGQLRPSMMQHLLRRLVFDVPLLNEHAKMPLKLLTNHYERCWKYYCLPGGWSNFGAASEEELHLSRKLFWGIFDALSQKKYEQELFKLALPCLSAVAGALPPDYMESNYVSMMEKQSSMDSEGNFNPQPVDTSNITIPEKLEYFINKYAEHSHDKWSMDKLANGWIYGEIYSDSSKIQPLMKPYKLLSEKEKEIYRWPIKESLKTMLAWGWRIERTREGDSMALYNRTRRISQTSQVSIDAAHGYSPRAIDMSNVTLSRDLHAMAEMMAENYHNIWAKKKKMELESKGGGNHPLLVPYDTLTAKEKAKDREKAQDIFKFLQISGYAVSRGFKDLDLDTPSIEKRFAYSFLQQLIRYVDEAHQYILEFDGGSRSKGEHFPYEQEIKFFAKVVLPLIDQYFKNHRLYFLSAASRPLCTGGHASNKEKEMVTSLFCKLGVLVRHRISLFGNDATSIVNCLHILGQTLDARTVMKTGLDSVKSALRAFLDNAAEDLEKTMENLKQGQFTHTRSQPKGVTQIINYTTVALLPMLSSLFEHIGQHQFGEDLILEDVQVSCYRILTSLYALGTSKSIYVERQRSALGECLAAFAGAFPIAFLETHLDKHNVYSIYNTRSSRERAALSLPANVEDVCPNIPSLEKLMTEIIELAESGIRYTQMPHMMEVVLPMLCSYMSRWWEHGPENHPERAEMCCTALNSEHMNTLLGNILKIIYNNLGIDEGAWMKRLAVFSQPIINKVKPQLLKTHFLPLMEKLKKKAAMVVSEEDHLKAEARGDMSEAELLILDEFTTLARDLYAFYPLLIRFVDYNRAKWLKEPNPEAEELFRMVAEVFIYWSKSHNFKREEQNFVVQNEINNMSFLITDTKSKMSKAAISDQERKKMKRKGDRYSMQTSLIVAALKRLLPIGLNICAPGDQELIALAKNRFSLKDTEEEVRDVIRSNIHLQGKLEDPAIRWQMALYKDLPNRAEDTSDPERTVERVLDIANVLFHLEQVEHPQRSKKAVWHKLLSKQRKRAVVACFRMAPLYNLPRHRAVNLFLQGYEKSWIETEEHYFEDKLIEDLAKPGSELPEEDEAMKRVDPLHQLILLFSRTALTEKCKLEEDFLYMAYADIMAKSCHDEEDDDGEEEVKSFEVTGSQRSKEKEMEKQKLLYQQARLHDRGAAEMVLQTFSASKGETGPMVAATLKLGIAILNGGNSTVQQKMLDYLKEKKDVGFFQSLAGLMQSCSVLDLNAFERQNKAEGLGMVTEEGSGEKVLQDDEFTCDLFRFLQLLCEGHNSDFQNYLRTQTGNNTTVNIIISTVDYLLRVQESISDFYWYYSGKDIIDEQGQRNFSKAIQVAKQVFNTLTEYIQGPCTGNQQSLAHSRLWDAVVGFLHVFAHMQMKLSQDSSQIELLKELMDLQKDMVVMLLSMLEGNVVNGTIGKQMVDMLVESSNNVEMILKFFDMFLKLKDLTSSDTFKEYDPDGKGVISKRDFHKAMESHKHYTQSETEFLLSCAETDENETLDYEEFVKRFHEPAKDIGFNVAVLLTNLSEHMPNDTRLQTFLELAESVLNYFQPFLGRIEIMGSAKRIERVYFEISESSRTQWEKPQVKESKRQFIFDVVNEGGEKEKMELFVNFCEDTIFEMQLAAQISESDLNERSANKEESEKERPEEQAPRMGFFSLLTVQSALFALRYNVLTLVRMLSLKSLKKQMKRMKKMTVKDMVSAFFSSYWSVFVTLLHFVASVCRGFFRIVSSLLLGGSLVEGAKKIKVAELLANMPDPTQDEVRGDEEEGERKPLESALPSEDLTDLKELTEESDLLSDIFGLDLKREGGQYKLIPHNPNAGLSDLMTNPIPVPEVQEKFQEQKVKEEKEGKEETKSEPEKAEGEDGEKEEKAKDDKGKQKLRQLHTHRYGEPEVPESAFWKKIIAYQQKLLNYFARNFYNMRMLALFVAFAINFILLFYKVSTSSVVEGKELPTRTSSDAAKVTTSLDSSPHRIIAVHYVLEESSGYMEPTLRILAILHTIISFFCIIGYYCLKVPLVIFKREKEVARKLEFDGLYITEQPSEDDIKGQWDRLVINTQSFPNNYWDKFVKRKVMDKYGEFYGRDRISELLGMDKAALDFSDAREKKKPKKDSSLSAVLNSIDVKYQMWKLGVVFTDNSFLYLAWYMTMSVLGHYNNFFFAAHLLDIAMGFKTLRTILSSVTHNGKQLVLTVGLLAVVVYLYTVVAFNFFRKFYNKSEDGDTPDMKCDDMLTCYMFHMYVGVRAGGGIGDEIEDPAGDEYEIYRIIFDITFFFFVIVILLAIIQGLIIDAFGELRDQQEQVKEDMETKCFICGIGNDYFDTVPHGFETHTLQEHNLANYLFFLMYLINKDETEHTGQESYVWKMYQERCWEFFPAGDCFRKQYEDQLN
Target sequence in this assay (P68106 with tags, fused parts or gaps T15C/C23A/C77I partner): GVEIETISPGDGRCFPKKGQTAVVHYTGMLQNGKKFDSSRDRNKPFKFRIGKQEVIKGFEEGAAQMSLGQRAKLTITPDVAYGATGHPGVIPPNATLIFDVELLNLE

[2] = target: T1, RyR2; assay: Fluorescent FKBP12.6 binding at the Z-line of permeabilized myocytes; set-up: These fluorescent proteins were added to saponin-permeabilized myocytes with or without pre-equilibration with saturating DPc10 concentration; endogenous in cells; host or cells: saponin-permeabilized rat ventricular myocytes
Method: These fluorescent proteins were added to saponin-permeabilized myocytes with or without pre-equilibration with saturating DPc10 concentration. […] We also did this with high [CaM] (500 nmol/L) that saturates RyR2 with CaM under control conditions (without DPc10; FIG. 17C). […] To test whether DPc10 and CaM bind at the same or nearby RyR2 sites, we measured FRET between CaM and DPc10.
FKBP12.6 can bind to and stabilize RyR2 channel gating, but details are controversial (Bers et al., Circ Res. 2012; 110:796-799). We measured the effect of H2O2 on FKBP12.6-RyR2 binding affinity in saponin-permeabilized myocytes using F-FKBP (Yang et al., Circ Res. 2014; 114:295-306; Cornea et al., Proc Natl Acad Sci USA. 2009; 106:6128-6133; Guo et al., Circ Res. 2010; 106:1743-1752; Guo et al., Biophys J. 2011; 101:2170-2177; Cornea et al., J Biol Chem. 2010; 285:19219-19226). […] We used 1 nmol/L F-FKBP (the its Kd) (Guo et al., Circ Res. 2010; 106:1743-1752), because at half-saturation it would be very sensitive to either an increase or decrease in RyR2 binding.
Target sequence in this assay (B0LPN4 whole entry): as the sequence (B0LPN4 whole entry) above
Target sequence in this assay (P68106 with tags, fused parts or gaps T15C/C23A/C77I partner): as the sequence (P68106 with tags, fused parts or gaps T15C/C23A/C77I partner) above

[3] = tested on: permeabilized cardiomyocytes; assay: Ca2+ sparks and SR Ca2+ content in permeabilized myocytes; assay type: cell-based, rat; conditions: 5 μmol/L DPc10 with 1 μmol/L CaM or 100 nmol/L FKBP12.6
Method: Myocytes were permeabilized with saponin (50μg/mL) for 60 seconds and placed in internal solution composed of EGTA 0.5 mmol/L; HEPES 10 mmol/L; Kaspartate 120 mmol/L; ATP 5 mmol/L; free MgCl2 1 mmol/L, reduced glutathione 10 mmol/L; and free [Ca2+] 50nmol/L (calculated using MaxChelator), creatine phosphokinase 5 U/mL, phosphocreatine 10 mmol/L, dextran 4% Fluo-4 0.025 mmol/L, pH 7.2. Ca2+sparks were recorded by a laser scanning confocal microscope (RADIANCE2000™ MP, Bio-Rad, UK) as previously described (Li et al., Circ Res, 2002; 90:309-316). Fluo-4 was excited at 488 nm and emission was recorded using 500/530 nm bandpass filter. To assess SR Ca2+content, caffeine (15 mmol/L) was rapidly perfused. Ca2+spark were analyzed as using SparkMaster (Picht et al., Am J Physiol Cell Physiol, 2007; 293:C1073-C1081).
Next, we asked whether RyR2 is activated by DPc10 and whether FKBP12.6 or CaM can prevent this. We assessed Ca^2+ sparks in permeabilized myocytes perfused with internal solution containing 50 nmol/L free Ca^2+ plus 1 μmol/L autocamtide-2-related inhibitory peptide (to inhibit CaMKII activity). Line-scan images were recorded after 3-hour incubations under control conditions and in the presence of 5 μmol/L DPc10, with or without 1 μmol/L CaM or 100 nmol/L FKBP12.6 (FIG. 14D).

[4] = target: T1, RyR2; assay: F-DPc10 wash-in and washout kinetics at the myocyte Z-line; assay type: binding; set-up: endogenous in cells; host or cells: saponin-permeabilized adult rat ventricular myocytes
Method: To characterize DPc10-binding kinetics at Z-lines, we performed F-DPc10 wash-in (500 nmol/L) and washout experiments in permeabilized myocytes (FIG. 10A). Association (τwash-in=79.0±3.2 minutes) and dissociation (τwashout=149.8±4.4 minutes) were very slow compared with similar FKBP12.6 measurements (Guo et al., Circ Res, 2010; 106:1743-1752). From the wash-in/washout measurements, we calculated the association and dissociation rates constants, kon and koff, respectively, according to the following equation: kwash-in=[F-DPc10]kon+koff where kwashout≈koff and k=1/τ (s^−1). Accordingly, kon=202±20 (L mol^−1 s^−1) and koff=0.11±0.01 (10^−3 s^−1). […] We repeated this kinetic analysis using FRET between FKBP12.6 and DPc10, thus assessing the RyR2-specific DPc10 binding (FIG. 11A AND 11B). […] Based on these kinetic and affinity analyses, we infer that most of the Z-line-specific DPc10 binding is to RyR2. This is also consistent with Bmax, which would imply ≈1 DPc10 per RyR2 monomer.
We were intrigued by the slow kwash-in and conducted measurements to further understand the basis of this slow association. We tested the hypothesis that at resting [Ca^2+]i, DPc10 access to its RyR2 binding site is sterically hindered. If the N-terminal and central domains are tightly zipped to each other, then this interaction may occlude the DPc10-binding site on the RyR2, thus limiting the kon for DPc10. Alternatively, a limiting factor may be the rate at which DPc10 adopts a conformation that can bind to RyR2. To discern between these mechanisms, we determined the effect of [F-DPc10] on τwash-in. If the small fraction of DPc10 in the right conformation limits binding rate, then τwash-in should be faster at higher [F-DPc10], according to Equation. […] Instead, a 10-fold increase in [F-DPc10] had no significant effect on the τwash-in, although it did increase Bmax (FIG. 10B). The same was seen when using FKBP12.6-DPc10 FRET to assess τwash-in with 0.5 vs 5 μmol/L HF647-DPc10 (FIG. 12A AND 12B).
In our working model, under resting conditions, the RyR2 closed state may be stabilized by the interaction between the N-terminal and central domain in the zipped state. We hypothesized that conditions that promote RyR2 opening might enhance the rate of unzipping and accelerate τwash-in for F-DPc10. To test this, we first monitored F-DPc10 wash-in at elevated Ca^2+ (500 nmol/L). However, the 13% faster mean τwash-in was not significant (FIG. 13A). […] Thus, we preincubated myocytes with ryanodine (100 μmol/L) plus caffeine ([…]), which are known to favor long RyR2 openings and were reported to cause RyR2 domain unzipping in HEK293 cells (Liu et al., J Cell Sci, 2010; 123: 1775-1784). Ryanodine+caffeine produced a 21% faster τwash-in (P=0.002; FIG. 13B). However, the most significant effect was seen after presaturating RyR2 with NF-DPc10 (and then NF-DPc10 washout with F-DPc10 present; FIG. 13A). […] Assuming that koff of NF-DPc10 is the same as for F-DPc10 and using Equation, the kon is increased by 3.2-fold by unzipping as a result of prebinding of NF-DPc10 to the RyR2. Our working hypothesis is that the RyR2 open state may increase the probability of an RyR2 shifting to the unzipped state and may allow faster F-DPc10 wash-in. It also seems that the RyR2 open state (favored by caffeine-ryanodine) differs from the unzipped state (bound with DPc10).
Both FKBP12.6 and CaM bind to the RyR2 and can reduce channel opening, which might alter DPc10 binding. […] Neither CaM nor FKBP12.6 pretreatment altered M-line F-DPc10 fluorescence (FIG. 15). […] We infer that CaM stabilizes the domain interaction between N-terminal and central domains in the zipped state and thereby may reduce DPc10 access to its binding site. To test for direct CaM-DPc10 interaction, we performed control FRET measurements between donor-labeled CaM and acceptor-labeled DPc10 in solution in the absence of RyR. The maximal FRET efficiency (<1%) ruled out direct CaM-DPc10 interaction. […]
Target sequence in this assay (B0LPN4 whole entry): as the sequence (B0LPN4 whole entry) above

[5] = target: RyR1 (Homo sapiens, UniProt P21817); conditions: cited from earlier work
[6] = target: RyR2 (Homo sapiens, UniProt Q92736); conditions: cited from earlier work
[7] = saturation of RyR2 with CaM 1 μmol/L or FKBP12.6 100 nmol/L, F-DPc10 5 μmol/L

Substance | Bmax of FKBP12.6, previous measurements ([1]; cell average fluorescence) | Kd ([1]; read-out: Kd of FKBP12.6 for RyR2) [nM] | Bmax for FKBP12.6, reanalyzed using FZ-FM [2] [µmol/L] | effect on CaSpF activation by DPc10 [3] | effect on F-DPc10 binding ([4]; 200-minute incubation with F-DPc10, pretreatment CaM 1 μmol/L or FKBP12.6 100 nmol/L) | effect on Bmax for F-DPc10 [4, 7] | effect on τwash-in of F-DPc10 [4, 7] | lower binding affinity [5] [fold] | lower affinity than FKBP12.6 [6] [fold]
FKBP12.6: FK506-binding protein 12.6 | ≈ 1 μmol/L | ~1 | 1.3 | only slightly decreased | did not alter | did not alter | did not alter | – | –
FKBP12: FK506-binding protein isoform FKBP12 | – | – | – | – | – | – | – | ~4 | ~100
